Reference: patent US7393837B2, “Inhibition of PEX in the treatment of metabolic bone diseases” (McGill University, priority 1998, dated 2008)

Key:
recombinant human PEX = target: T1, recombinant human PEX (Homo sapiens, UniProt P78562); assay: Membrane-bound endopeptidase assay, hydrolysis by PEX-expressing COS cell membranes (HPLC); format: biochemical; details: for hydrolysis of the peptide in the presence of PEX: 10 μg peptide, COS cell membranes expressing PEX, HPLC at 214 nm, FIG. 8
T1 construct: excising the full length PEX cDNA that was then inserted into pcDNA3 vector; expressed in transfected cells; host or cells: COS-7 cells, transient transfection with pPEX (pcDNA3); 100,000 x g membrane fraction
T1 sequence (P78562 1-749): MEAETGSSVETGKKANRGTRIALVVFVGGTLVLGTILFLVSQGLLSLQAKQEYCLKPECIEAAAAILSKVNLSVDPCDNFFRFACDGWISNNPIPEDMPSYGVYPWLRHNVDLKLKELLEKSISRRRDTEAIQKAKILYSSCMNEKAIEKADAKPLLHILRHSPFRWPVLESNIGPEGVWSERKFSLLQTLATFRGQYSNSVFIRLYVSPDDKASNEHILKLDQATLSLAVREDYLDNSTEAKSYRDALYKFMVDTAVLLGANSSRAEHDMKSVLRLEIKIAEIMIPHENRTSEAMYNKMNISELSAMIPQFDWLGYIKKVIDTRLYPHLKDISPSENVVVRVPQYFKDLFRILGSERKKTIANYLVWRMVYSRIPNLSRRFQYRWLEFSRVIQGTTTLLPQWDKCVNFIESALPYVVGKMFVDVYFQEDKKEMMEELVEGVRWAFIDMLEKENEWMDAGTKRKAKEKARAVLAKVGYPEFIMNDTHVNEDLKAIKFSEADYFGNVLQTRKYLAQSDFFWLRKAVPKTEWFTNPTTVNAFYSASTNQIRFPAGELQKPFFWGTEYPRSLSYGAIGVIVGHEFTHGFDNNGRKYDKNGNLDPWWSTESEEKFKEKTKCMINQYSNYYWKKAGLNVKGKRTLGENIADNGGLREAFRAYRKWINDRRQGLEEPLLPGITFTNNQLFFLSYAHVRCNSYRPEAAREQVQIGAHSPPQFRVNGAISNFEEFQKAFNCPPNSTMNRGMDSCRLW
Description: (§1) COS-7 cells transiently transfected with pcDNA3 vector alone, with vector containing human NEP cDNA (generous gift of P. Crine, Université de Montréal), or with pPEX plasmid, were washed and scraped in PBS. Following brief centrifugation, the cell pellets were resuspended in 50 mM Tris-HCl, pH 7.4 and disrupted by sonication. Homogenates were fractionated by sequential centrifugation at 1,000×g for 10 min and then at 100,000×g for 60 min. The final precipitate was washed with 50 mM Tris-HCl, pH 7.4, resuspended in the same buffer, and assayed for endopeptidase activity. The protein concentration in membrane fractions was determined by the method of Bradford with bovine serum albumin as standard.
[D-Ala^2,Leu^5] enkephalin (500 μM) was incubated with COS cell membrane preparations (˜60 μg of protein) in 100 mM Tris-HCl, pH 7.0, at 37° C. for 30 min (final volume 30 μl). The reaction was terminated by the addition of 100 μl 0.1% TFA (v/v). Production of Tyr-D-Ala-Gly was monitored using reversed-phase HPLC (Bondpak C-18 reverse phase column, Waters) with a U.V. detector set at 214 nm. A linear solvent gradient of 0% B to 40% B in 60 min was used with a flow rate of 1.5 ml/min (mobile phase A=0.1% TFA (v/v); mobile phase B=80% acetonitrile/0.1% TFA). Tyr-D-Ala-Gly was identified by co-chromatography with marker synthetic peptide. For assessing PEX endopeptidase activity, 10 μg of PTH [1-38] and PTH [1-34] peptides (Peninsula Laboratories; Belmont, Calif.) were added to the membrane preparations. For HPLC analysis of hydrolysis products, a linear solvent gradient of 0% to 50% solution B was used at a rate of 1.5 ml/min. MALDI-TOF mass spectrometry was performed on specific peptide fragments.

recombinant human NEP = target: T2, recombinant human NEP (Homo sapiens, UniProt P08473); assay: Membrane-bound endopeptidase assay, hydrolysis by NEP-expressing COS cell membranes (HPLC); format: biochemical; details: 500 μM substrate, 37° C., 30 min; FIG. 7B
T2 construct: expressed in transfected cells; host or cells: COS-7 cells, transient transfection; 100,000 x g membrane fraction
Description: as §1
[D-Ala^2,Leu^5] enkephalin (500 μM) was incubated with COS cell membrane preparations (˜60 μg of protein) in 100 mM Tris-HCl, pH 7.0, at 37° C. for 30 min (final volume 30 μl). The reaction was terminated by the addition of 100 μl 0.1% TFA (v/v). Production of Tyr-D-Ala-Gly was monitored using reversed-phase HPLC (Bondpak C-18 reverse phase column, Waters) with a U.V. detector set at 214 nm. A linear solvent gradient of 0% B to 40% B in 60 min was used with a flow rate of 1.5 ml/min (mobile phase A=0.1% TFA (v/v); mobile phase B=80% acetonitrile/0.1% TFA). Tyr-D-Ala-Gly was identified by co-chromatography with marker synthetic peptide. […]

T2 sequence (P08473 whole entry): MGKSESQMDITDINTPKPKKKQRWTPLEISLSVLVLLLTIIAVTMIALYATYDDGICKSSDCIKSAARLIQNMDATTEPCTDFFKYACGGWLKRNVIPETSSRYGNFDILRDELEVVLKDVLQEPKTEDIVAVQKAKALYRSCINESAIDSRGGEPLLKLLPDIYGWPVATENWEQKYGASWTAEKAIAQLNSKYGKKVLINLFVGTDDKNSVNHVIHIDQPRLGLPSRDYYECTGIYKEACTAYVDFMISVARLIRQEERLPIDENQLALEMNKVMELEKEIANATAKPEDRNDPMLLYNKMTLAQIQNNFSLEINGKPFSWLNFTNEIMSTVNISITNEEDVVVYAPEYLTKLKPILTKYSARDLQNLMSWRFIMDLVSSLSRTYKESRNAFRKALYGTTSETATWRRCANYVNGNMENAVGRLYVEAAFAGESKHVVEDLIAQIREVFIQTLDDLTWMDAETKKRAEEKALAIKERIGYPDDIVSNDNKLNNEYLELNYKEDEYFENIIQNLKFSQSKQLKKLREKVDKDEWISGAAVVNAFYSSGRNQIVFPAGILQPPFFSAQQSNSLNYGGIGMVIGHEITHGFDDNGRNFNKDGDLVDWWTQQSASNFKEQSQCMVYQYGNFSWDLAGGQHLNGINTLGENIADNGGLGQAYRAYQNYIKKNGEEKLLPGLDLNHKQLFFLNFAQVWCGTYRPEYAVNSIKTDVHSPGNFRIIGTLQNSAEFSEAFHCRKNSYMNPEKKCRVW

| Substance | hydrolysis of the peptide in the presence of PEX (recombinant human PEX) | production of Tyr-D-Ala-Gly from the substrate, NEP membranes (recombinant human NEP) | production of Tyr-D-Ala-Gly from the substrate, PEX membranes (recombinant human PEX; 500 μM substrate, 37° C., 30 min, FIG. 7C) |
| --- | --- | --- | --- |
| PTH [1-38]: human parathyroid hormone peptide 1-38 (Peninsula Laboratories), used as PEX substrate (SVSEIQLMHNLGKHLNSMERVEWLRKKLQDVHNFVALG) | hydrolyzed |  |  |
| [D-Ala^2, Leu^5] enkephalin |  | evident only in NEP-expressing membrane preparations | evident only in NEP-expressing membrane preparations |
| PTH [1-34]: human parathyroid hormone peptide 1-34 (Peninsula Laboratories), used as PEX substrate | hydrolyzed |  |  |
